Consider 21 sequences from a protein production outcome set (Wang et al. 2014).
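Also: failed if final PepcDB status was selected cloned or expressed and not failed if soluble or beyond.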

The nature of the series: label from the status in PepcDB records.
In the case of “MGSSHHHHHHENLYFQGSNIAFYVVSDVHGYIFPTDFTSRNQYQPMGLLLANHVIEQDRRQYDQSFKIDNGDFLQGSPFCNYLIAHSGSSQPLVDFYNRMAFDFGTLGNHEFNYGLPYLKDTLRRLNYPVLCANIYENDSTLTDNGVKYFQVGDQTVGVIGLTTQFIPHWEQPEHIQSLTFHSAFEILQQYLPEMKRHADIIVVCYHGGFEKDLESGTPTEVLTGENEGYAMLEAFSKDIDIFITGHQHRQIAERFKQTAVIQPGTRGTTVGRVVLSTDEYENLSVESCELLPVIDDSTFTIDEDDQHLRKQLEDWLDYEITTLPYDMTINHAFEARVAPHPFTNFMNYALLEKSDADVACTALFDSASGFKQVVTMRDVINNYPFPNTFKVLAVSGAKLKEAIERSAEYFDVKNDEVSVSADFLEPKPQHFNYDIYGGVSYTIHVGRPKGQRVSNMMIQGHAVDLKQTYTICVNNYRAVGGGQYDMYIDAPVVKDIQVEGAQLLIDFLSNNNLMRIPQVVDFKVEK”, the protein production result is on record as “not failed”.
Then “MSLTRNRTVALAIIDMQNDFVLPGAPACVEGAMGTVPVIAGLLAKARAEGWMVLHVVRAHRADGSDAEKSREHLFLEGGGLCVAGTPGAEIVAGLEPASGETVLVKTRFSAFMGTECDMLLRRRGVDTLLVSGTQYPNCIRGTAVDAFALDYDVVVVTDACSARTPGVAESNINDMRAMGITCVPLTALDDVLARREGHHHHHH”, with “not failed”.
As for “AYQPIRYRETGKVGELTFEFYNGAMSTEQCQRLVSALRWAKARDTQVLLVRGGRGAFSNGVHLNVIQAAEVPGLEAWANIQAIDDVCLELLTARQLVVSGLTGNAGAGGLMLALAADVVLARADTVYNPHYKSMGLYGSEYWTYSLPRAVGQAMAKQLTEACLPISALQALQMGMVQEIGPRC”, the protein production entry was “failed”.
The result for “MGTIKIVTDSSITIEPELIKALDITVVPLSVMIDSKLYSDNDLKEEGHFLSLMKASKSLPKTSQPPVGLFAETYENLVKKGVTDIVAIHLSPALSGTIEASRQGAEIAEAPVTVLDSGFTDQAMKFQVVEAAKMAKAGASLNEILAAVQAIKSKTELYIGVSTLENLVKGGRIGRVTGVLSSLLNVKVVMALKNDELKTLVKGRGNKTFTKWLDSYLAKNSHRPIAEIAISYAGEASLALTLKERIAAYYNHSISVLETGSIIQTHTGEGAFAVMVRYE” reads “not failed”; that for “MSFESNQLMPIAALRGGPGTPAADVLTAFALRRKAEGIDVVGVIVPPEDAGSGHQGHGHGEGHGGGHEGCECRSELIDIATGDRYAMHQDLGSGSQACNLNSSSLALAAGAVERAVARKPALVVLSRFGGQEAVRGGLMSAFQAAIAAGVPVACVVTPKAEDVWNDFAQGLSVSLPPEADALEAWWRDHARGRNAALEHHHHHH”, “failed”; that for “MLDKNKFIQINLVPCHFCYSFLSYASILEAIMKFKNILVVLNPSNEKQYALARAVRLVEEQKNETKVKITALLSVYDLSYEMSALLSSEERSEMHQQVIEKHRHAVQYYLDKYANPEIELQSHIVWNSNEADAINEEVENNNYDLVVKYTKDEEKLTSLIFTPIDWQLLRKCPIPVLMVRDGDWKHPRRILVAVNVSGEQEYQDEFNQELVETGISLAENLNRGNVHLVAAYPSAPINMAIDLPEFNTSGYENGIRGQHLINMKALRQKFGIDEDHTHVREGFPEEVIPEVAKEIEAELVILGTVGRTGLSAALLGNTAEHVISKLSCNLLGIKPSKKDD”, “failed”.
The result for “MNNENPLVSILIPVYNREKYIGEAIESAINQTYKNIEVIIVDNCSTDNTWKILQDYQCKDKRIHIFQNEKNLGPVYNWIECFKRAKGVYSKILWSDDWMSLDFVENALSAFNEDISFVISAQQIITNDKEILSNVAYLKDRYSQREYLENALLYNKYNFPLSPGCAIFRTKDVLNNFIVDIPNSDSLDSKKNGAGNDLYLFLKIALHYPYIGVVANSVSYFRAHKESFSVASDLNLYYEWAKVDFINSELRDSYFISAKKMLLFKFSVKNKHFRNICKSLSYNKYILQAVFRLLLIRILEHHHHHH” reads “failed”; that for “MSVTFSYLAETDYPVFTLGGSTADAARRLAASGCACAPVLDGERYLGMVHLSRLLEGRKGWPTVKEKLGEELLETVRSYRPGEQLFDNLISVAAAKCSVVPLADEDGRYEGVVSRKRILGFLAERI”, “not failed”.
For “MRAYQIMSRQVVSIRPEAPITDAIKVMLAHHISGLPVVDSADNLVGIICESDFLRRSEIGTEHERNRLLSLLLGAERVASEFVKERGRKVEQVMTRQPVTTNEQAPLDEVADVMERRHLNHIPVMRADRIVGIITRSDFLSAVAGPLTGASGYSGSDNQLRRAVLAALAKTPWQPIGLNVRVRDGAVSLRGVIRGESAHRAAIVACENVPGVLRVDDRLCVQPSRPDPEDDYGGGDFVSLQMEPSTLDDEPL”, the protein production entry is reported as “failed”.
As for “MNTDNPKSHISRIAYPAIIVFLILTLLGSLVERFHPFTSWLTPPVALLMGLAYALIFGSTHRRANKLGSKVLLQYSVVGLGFGMNLGESLASGRDGMMFTIISVFGTLLLGWFIGRKILQMNRNTSALISAGTAICGGSAIAAVGPILKAEEHEMSVALGTVFLLNAVALFIFPSIGHWLALDQQQFGTWAAIAIHDTSSVVGAGSAYGEEALRVATTIKLTRALWIVPLTLVFSFVYKTKGAKRFPVPLFILFFIGAIILNTYLLEAYFPEVGRFVASLARKGLTLSLFFIGASLTKEVIASVGVRALLQGLFLWILISVGSLAFILLI”, the protein production result is listed as “failed”.
Regarding “MWNATPSEEPGFNLTLADLDWDASPGNDSLGDELLQLFPAPLLAGVTATCVALFVVGIAGNLLTMLVVSRFRELRTTTNLYLSSMAFSDLLIFLCMPLDLVRLWQYRPWNFGDLLCKLFQFVSESCTYATVLTITALSVERYFAICFPLRAKVVVTKGRVKLVIFVIWAVAFCSAGPIFVLVGVEHENGTDPWDTNECRPTEFAVRSGLLTVMVWVSSIFFFLPVFCLTVLYSLIGRKLWRRRRGDAVVGASLRDQNHKQTVKMLGGSQRALRLSLAGPILSLCLLPSL”, the protein production result is “failed”.
The result for “MANGTTPSVGIALGSGAAKGWAHIGVLNGLAAMGIKPDKVAGCSVGALVGAAYAHDHLPELEEWVRSFSSWDVLGLMDIRWRKGGLIGGDKVFDVLQARIGDVNIENLNRPFAAVATDLYSGQEIWFTEGDLRQAVRASCSMPGILAPVRQGDRWLVDGAVVNPVPVSVSRAMGVDVVIAVDLYGYHSGRIQVLPVSMTSQKNVEAEMDMSARQETGFMDLFARGRDYVSNLTDKFSLGTKSNPGMIAVMSQSMGILEQRHKRARLMGDPPDICIVPEVGNIGTMEFHRADEAIAAGEAAVEKVAHLIEAALWKG” reads “not failed”; that for “RNYNNPVVLCGFAGSTPTGVLAASYIVETLGMHQVAHLISQHIPPVAVFVGGKLRHPFRIYANNSNTVLVAMCEVPISSAHIYEISNTLMNWIDQVGASEIVIMEGSPANGIPEERPVFAVAEKPKLDKFKKAGIQPADSAIIAGMGGGILNECLVRKITGLSFITPTSVDIPDPGAVLSIIEAINKAYNLKIKTDLLEEQVKALDEQIKKIEEQYKELQEKQKEPQSMYG”, “not failed”.
As to “MAIDTNSSTPLVSVITPTYNRPNYLQAALTSAVRQTYSHIEIIVCDNCSPQNPQAIVDSFDDSRIRFFRNSSNMGMFANTIKAFKMARGKYVACLLDDDLWEEDFLEKLVPPLEANPNLALAFCDHYIMDANGNIDDALTEEYSRSYKRVDLPEGIYQPFYRMGLVDRSVSTATAAVMRRDAIAWDAIPAEVGGSWDIYLNYLCCRSGLGAYFYPEKLTRYRVHEQTETMLSGKRDAQAKIRKAQADMFCYEQFMADERLQELKPYFQQQWAHVSTTLGIGFMRSKQMKLARSYFWRSLKQSLKLRTMAGLMLSFTPPTIASRF”, the protein production entry is “failed”.
The result for “MMSKVVSKMKSFLGFDEFEDEDEVMEEEEVMEEEESFAPVLSSKKNGKVVNIHTANTAKLMITKPLVYDDATEICTALKNRKIVVINTTSLELRTAQRLIDFVGGACYALCGELQEVEKGVFIVSPSNVEVSNELKSELSNKGMFNWASKLEHHHHHH” reads “not failed”; that for “MTALHDLPGTRLLALFARRELSPGEYYEHLLAHIQRWEPHLNALYRFDPQRVREQAAAATERWRKGQPKGPLDGLPVTIKELIATAGEPIPLGSAATALQPAPCDAPPAARLREAGAIVLAKTTVPDFGMLSSGLSSFHGVTRNPWNLANNTGGSSSGAAAAATAGYGPLHLGTDIGGSVRLPAGWCGLVGFKPSLGRIPIDPYYTGRCAGPMTRCMDDCLLLMRYLAQPDARDATSLPPEVLDWSAEPLSVRGLRVGLQLDPGCGLQPDAEIRAAIEAAARLFEEHGAQLRIVEPLMDRSLLDGLNDFWRARLWSELLLLDETRRARVLPYVHAWAEGGARVSGVDAVRGFNQTFEMRRRAARLFGEIDLLLTPTNQVEAFPADWASPLNDPQRPFEHIVFTVPWNMGEQPALSINCGFTAAGMPIGLQLVAPRFADTWLLRIGKTYEGWRGPIHGWP”, “failed”.
Then “PQAMIIDVVADVVCPWCYLGWRRLKSAIALRPDLKAQLIWRPYQLDPTLPEDGVDRKAYMAQKFKDPEKLKAVHTALVEGGAEEGIVFNFEAIALSPNTNAAHRLIRWALTAGVQDHVVEALFKAYFEQGLDIGDPIVLGDIAEAAGMERLVVLQLLSEGADKEAVAREHAMAVQGGVTGVPFAIFAGKVAVVGAESPERIAQAIDQALAA”, with “failed”; and “AIAPDSLYDSLECLSEKIEAEGLYTTFSSDKLVRRIKRSSETEKIILSRFLRARRFNVDSAFDSFLACLKFREAENVNSVGLDEFKNPLATFPFTTTGFCTFDGEPLLYGRASALDRFKIDPAIFHRGFISFLEFLGDTFEPSTMFVIIFDFTDFSPIRNVHFGCARDMLKVMQDFYPERLSKIFLVNYPSTLYGVYKIVSPFIDENTRSKLEWIPKNSLEQLLRYVSMEAIPYSIGGMAVYPVPPLSSQ”, with “failed”.
For the sequence “LETSWIKPGQASWEWWNDAAPYGPDVNFVSGYNLETYKYYIDFASKYGIRYIIMDEGWAKSTRDPYTPNAKVDVHELIRYAEKKNVGIVLWLTWLTVENNMDLFKTFSEWGVKGVKIDFMDRSDQWMMNFYERVAAEAAKYKLFVDFHGSVSPKGLEYKYPNVLSYEGVRGMEQMGGATPDNSIFMPFMRNAVGAMDYTPGAM”, the protein production result is “failed”.
Then “MDVGVVRPQRTEAGWDGGVAPRAGPTRRREACTAYVQRVAGGSGLPEGSSGSEPGPGRSRERPGDAAGGSGNAGCCACPVVSETGGDWLTDSTNRAFSVPGDFQGRRQAEGKTQKVRVQSTGKVPPFPVMKLQVLVLLMSWFGVLSWVQAEFFTSIGHMTDLIYAEKDLVQSLKEYILAEEAKLSKIKSWASKMEALTSKSAADPEGYLAHPVNAYKLVKRLNTDWPALGDLVLQDAAAGFVANLSVQRQFFPTDEDESGAARALMRLQDTYKLDPDMISRGELPGTKYQAMLSVDDCFGMGRSAYNEGDYYHTVLWMEQVLKQLDAGEEATVTKSLVLDYLSYAVFQLGDLHRAVELTRRLLSLDPSHERAGGNLRYFERLLEEERGKSLSNQTDAGLASQENLYERPVDYLPERDVYESLCRGEGIKMTPRRQKRLFCRYHHGNRVPQLLIAPFKEEDEWDSPHIVRYYDVMSDEEIERIKEIAKPKLARATVRDPKTGVLTVASYRVSKSSWLEEDDDPVVARVNRRMQHITGLTVKTAELLQVANYGMGGQYEPHFDFSRSDERDAFKRLGTGNRVATFLNYMSDVEAGGATVFPDLGAAIWPKKGTAVFWYNLLRSGEGDYRTRHAACPVLVGCKWVSNKWFHERGQEFLRPCGTTEVD”, with “failed”; and “QNKKSGNPILPGFHADPEVLYSHQTKRYYIYPTSDGFPGWGGSYFKVFSSKNLKTWKEETVILEMGKNVSWANGNAWAPCIEEKKIDGKYKYFFYYSANPTTNKGKQIGVAVADSPTGPFTDLGKPIITSSPTGRGQQIDVDVFTDPVSGKSYLYWGNGYMAGAELNDDMLSIKEETTVVLTPKGGTLQTYAYREAPYVIYRKGIYYFFWSVDDTGSPNYHVVYGTAQSPLGPIEVAKEPIVLIQNPKEEIYGPAHNSILQVPGKDKWYIVYHRINKNHLNDGPGWHREVCIDRMEFNPDGTIKQVIPTP”, with “not failed”.
